Where a chain is given by its changes, count along the chain named.

B1: 40 bp BREX (dsDNA)
DNA 1: TCAGTAGTCAAGTCAGTGGTAAGGTCAGGACAGGAGTCAG
DNA 2: CTGACTCCTGTCCTGACCTTACCACTGACTTGACTACTGA
B2: 40 bp BREX 4G (dsDNA)
DNA 1: B1 DNA 1 with A21G
DNA 2: B1 DNA 2 with T20C
B3: 40 bp BREX 4T (dsDNA)
DNA 1: B1 DNA 1 with A21T
DNA 2: B1 DNA 2 with T20A
B4: 40 bp BREX 4C (dsDNA)
DNA 1: B1 DNA 1 with A21C
DNA 2: B1 DNA 2 with T20G

The data set has as its target T1, BrxX G785T/N823S (TRD variant) (Escherichia coli HS, UniProt P0DUF9 1-1205, G785T;N823S).
T1 sequence: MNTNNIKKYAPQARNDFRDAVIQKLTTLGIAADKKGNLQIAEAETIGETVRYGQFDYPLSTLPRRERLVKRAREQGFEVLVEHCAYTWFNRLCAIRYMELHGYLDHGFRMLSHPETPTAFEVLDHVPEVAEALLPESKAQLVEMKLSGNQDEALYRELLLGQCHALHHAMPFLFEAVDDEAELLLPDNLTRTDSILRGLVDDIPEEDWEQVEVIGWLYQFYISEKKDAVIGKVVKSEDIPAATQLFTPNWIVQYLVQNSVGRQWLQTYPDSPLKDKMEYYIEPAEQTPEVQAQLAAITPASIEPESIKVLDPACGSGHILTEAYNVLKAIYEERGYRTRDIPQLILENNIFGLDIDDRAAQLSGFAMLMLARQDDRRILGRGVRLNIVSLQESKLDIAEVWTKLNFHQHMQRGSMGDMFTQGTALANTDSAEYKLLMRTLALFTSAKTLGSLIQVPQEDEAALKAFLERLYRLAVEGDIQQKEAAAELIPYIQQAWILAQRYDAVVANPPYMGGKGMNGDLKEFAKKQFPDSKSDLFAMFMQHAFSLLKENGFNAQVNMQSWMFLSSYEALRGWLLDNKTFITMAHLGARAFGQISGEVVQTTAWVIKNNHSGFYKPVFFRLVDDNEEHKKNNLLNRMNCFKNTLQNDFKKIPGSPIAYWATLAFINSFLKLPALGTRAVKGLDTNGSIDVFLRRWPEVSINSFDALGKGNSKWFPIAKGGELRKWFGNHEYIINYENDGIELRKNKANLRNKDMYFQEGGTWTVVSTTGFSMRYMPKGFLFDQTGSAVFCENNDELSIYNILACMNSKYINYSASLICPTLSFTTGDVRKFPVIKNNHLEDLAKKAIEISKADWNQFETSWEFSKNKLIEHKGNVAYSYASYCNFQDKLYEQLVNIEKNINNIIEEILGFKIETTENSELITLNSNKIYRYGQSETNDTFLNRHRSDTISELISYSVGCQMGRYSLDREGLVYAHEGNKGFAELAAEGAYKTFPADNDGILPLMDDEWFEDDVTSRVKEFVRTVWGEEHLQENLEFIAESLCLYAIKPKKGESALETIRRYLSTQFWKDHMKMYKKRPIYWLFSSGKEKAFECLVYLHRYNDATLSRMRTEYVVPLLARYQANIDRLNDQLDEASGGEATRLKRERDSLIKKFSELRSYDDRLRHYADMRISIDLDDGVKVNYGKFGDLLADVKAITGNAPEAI
The data set is described as follows: EMSA; decreased affinity; EMSA: 20 nM Cy5-DNA, 0.5x TBE pH 8.0, 35 mM NaCl, 5% glycerol, +/-0.5 mM SAM or SAH, 30 min, room temperature; BLI: 20 mM Tris-HCl pH 8.0, 100 mM NaCl, 0.05 mg/mL BSA, 0.02% Tween-20, +/-0.5 mM SAM, 30 C. The conditions noted are these: protein: recombinant; tags: N-His6; label: 5'-Cy5 on strand 1; blunt. (A gel shift assay detects complexes by their altered migration in electrophoresis.)
In the case of B1, the binding result was “binds”.
With B2 the entry was “binds”; with B3, “binds”; with B4, “binds”.
